Earlier results in paper PMC9074927.
Read-outs that look alike come from different tables or passages of the source.

Tests used:
[1] = biological target: histone H3 (Homo sapiens) (UniProt P68431)
[2] = biological target: histone H3 (Homo sapiens) (UniProt P68431); remark: listed apart in the source

| Substance | Kd [1] [µM] | Kd [2] [µM] |
| --- | --- | --- |
| CBX1 chromodomain (from UniProt P83916) | 0.6 | – |
| CBX1 eReader chromodomain (from UniProt P83916) | – | 0.13 |
